Results from patent US7256012B2, “Fluorogenic protease substrates based on dye-dimerization” (3M Innovative Properties Company, priority 1997, dated 2007).

Target: T1, trypsin (Bos taurus, UniProt P00760)
T1 construct: gene PRSS1
T1 sequence (P00760 24-246): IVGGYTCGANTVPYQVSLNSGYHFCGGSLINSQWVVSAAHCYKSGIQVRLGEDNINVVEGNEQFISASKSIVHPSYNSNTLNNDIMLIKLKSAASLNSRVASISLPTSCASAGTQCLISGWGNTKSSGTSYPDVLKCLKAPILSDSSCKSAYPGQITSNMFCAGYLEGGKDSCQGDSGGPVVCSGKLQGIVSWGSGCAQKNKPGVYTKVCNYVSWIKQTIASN
Experiment: Hydrolysis of fluorogenic protease substrate by purified enzyme (trypsin), fluorescence intensity
Type: biochemical
Settings: for Average ratio w/ trypsin to w/o trypsin: average over emission 570-585 nm
Description: Enzymatic hydrolysis of the substrate from Example 1 was carried out in 50 mM carbonate buffer, pH 8.9 at room temperature. Fluorescence intensity of the solution prior to treatment with trypsin and after treatment with trypsin is shown in Table 1, for excitation wavelengths of 360 nm, 522 nm, 530 nm, and 553 nm, respectively. […] This is a characteristic of dye dimerization or stacking, as described above. […] Both the fluorescence and absorption results provided convincing evidence that ground-state interactions existed between dye molecules in the conjugate and became diminished after enzymatic cleavage.

[1] = Excitation 360 nm, emission 570 nm
[2] = Excitation 360 nm, emission 571 nm
[3] = Excitation 360 nm, emission 572 nm
[4] = Excitation 360 nm, emission 573 nm
[5] = Excitation 360 nm, emission 574 nm
[6] = Excitation 360 nm, emission 575 nm
[7] = Excitation 360 nm, emission 576 nm
[8] = Excitation 360 nm, emission 577 nm
[9] = Excitation 360 nm, emission 578 nm
[10] = Excitation 360 nm, emission 579 nm
[11] = Excitation 360 nm, emission 580 nm
[12] = Excitation 360 nm, emission 581 nm
[13] = Excitation 360 nm, emission 582 nm
[14] = Excitation 360 nm, emission 583 nm
[15] = Excitation 360 nm, emission 584 nm
[16] = Excitation 360 nm, emission 585 nm
[17] = Excitation 522 nm, emission 570 nm
[18] = Excitation 522 nm, emission 571 nm
[19] = Excitation 522 nm, emission 572 nm
[20] = Excitation 522 nm, emission 573 nm
[21] = Excitation 522 nm, emission 574 nm
[22] = Excitation 522 nm, emission 575 nm
[23] = Excitation 522 nm, emission 576 nm
[24] = Excitation 522 nm, emission 577 nm
[25] = Excitation 522 nm, emission 578 nm
[26] = Excitation 522 nm, emission 579 nm
[27] = Excitation 522 nm, emission 580 nm
[28] = Excitation 522 nm, emission 581 nm
[29] = Excitation 522 nm, emission 582 nm
[30] = Excitation 522 nm, emission 583 nm
[31] = Excitation 522 nm, emission 584 nm
[32] = Excitation 522 nm, emission 585 nm

- Average ratio w/ trypsin to w/o trypsin (Excitation 360 nm): 26
- Fluorescence intensity w/ trypsin [1]: 8625
- Fluorescence intensity w/o trypsin [1]: 319
- ratio w/ trypsin to w/o trypsin [1]: 27
- Fluorescence intensity w/ trypsin [2]: 8817
- Fluorescence intensity w/o trypsin [2]: 347
- ratio w/ trypsin to w/o trypsin [2]: 25
- Fluorescence intensity w/ trypsin [3]: 9322
- Fluorescence intensity w/o trypsin [3]: 369
- ratio w/ trypsin to w/o trypsin [3]: 25
- Fluorescence intensity w/ trypsin [4]: 9189
- Fluorescence intensity w/o trypsin [4]: 365
- ratio w/ trypsin to w/o trypsin [4]: 25
- Fluorescence intensity w/ trypsin [5]: 9629
- Fluorescence intensity w/o trypsin [5]: 354
- ratio w/ trypsin to w/o trypsin [5]: 27
- Fluorescence intensity w/ trypsin [6]: 9719
- Fluorescence intensity w/o trypsin [6]: 410
- ratio w/ trypsin to w/o trypsin [6]: 24
- Fluorescence intensity w/ trypsin [7]: 9759
- Fluorescence intensity w/o trypsin [7]: 401
- ratio w/ trypsin to w/o trypsin [7]: 24
- Fluorescence intensity w/ trypsin [8]: 9776
- Fluorescence intensity w/o trypsin [8]: 378
- ratio w/ trypsin to w/o trypsin [8]: 26
- Fluorescence intensity w/ trypsin [9]: 9981
- Fluorescence intensity w/o trypsin [9]: 379
- ratio w/ trypsin to w/o trypsin [9]: 26
- Fluorescence intensity w/ trypsin [10]: 9872
- Fluorescence intensity w/o trypsin [10]: 392
- ratio w/ trypsin to w/o trypsin [10]: 25
- Fluorescence intensity w/ trypsin [11]: 9788
- Fluorescence intensity w/o trypsin [11]: 361
- ratio w/ trypsin to w/o trypsin [11]: 27
- Fluorescence intensity w/ trypsin [12]: 9960
- Fluorescence intensity w/o trypsin [12]: 375
- ratio w/ trypsin to w/o trypsin [12]: 27
- Fluorescence intensity w/ trypsin [13]: 9783
- Fluorescence intensity w/o trypsin [13]: 376
- ratio w/ trypsin to w/o trypsin [13]: 26
- Fluorescence intensity w/ trypsin [14]: 9591
- Fluorescence intensity w/o trypsin [14]: 347
- ratio w/ trypsin to w/o trypsin [14]: 28
- Fluorescence intensity w/ trypsin [15]: 9387
- Fluorescence intensity w/o trypsin [15]: 385
- ratio w/ trypsin to w/o trypsin [15]: 24
- Fluorescence intensity w/ trypsin [16]: 9427
- Fluorescence intensity w/o trypsin [16]: 353
- ratio w/ trypsin to w/o trypsin [16]: 27
- Average ratio w/ trypsin to w/o trypsin (Excitation 522 nm): 28
- Fluorescence intensity w/ trypsin [17]: 40193
- Fluorescence intensity w/o trypsin [17]: 1378
- ratio w/ trypsin to w/o trypsin [17]: 29
- Fluorescence intensity w/ trypsin [18]: 41416
- Fluorescence intensity w/o trypsin [18]: 1525
- ratio w/ trypsin to w/o trypsin [18]: 27
- Fluorescence intensity w/ trypsin [19]: 42506
- Fluorescence intensity w/o trypsin [19]: 1480
- ratio w/ trypsin to w/o trypsin [19]: 29
- Fluorescence intensity w/ trypsin [20]: 43406
- Fluorescence intensity w/o trypsin [20]: 1509
- ratio w/ trypsin to w/o trypsin [20]: 29
- Fluorescence intensity w/ trypsin [21]: 44241
- Fluorescence intensity w/o trypsin [21]: 1645
- ratio w/ trypsin to w/o trypsin [21]: 27
- Fluorescence intensity w/ trypsin [22]: 45037
- Fluorescence intensity w/o trypsin [22]: 1643
- ratio w/ trypsin to w/o trypsin [22]: 27
- Fluorescence intensity w/ trypsin [23]: 45519
- Fluorescence intensity w/o trypsin [23]: 1587
- ratio w/ trypsin to w/o trypsin [23]: 29
- Fluorescence intensity w/ trypsin [24]: 45648
- Fluorescence intensity w/o trypsin [24]: 1672
- ratio w/ trypsin to w/o trypsin [24]: 27
- Fluorescence intensity w/ trypsin [25]: 45980
- Fluorescence intensity w/o trypsin [25]: 1629
- ratio w/ trypsin to w/o trypsin [25]: 28
- Fluorescence intensity w/ trypsin [26]: 45745
- Fluorescence intensity w/o trypsin [26]: 1673
- ratio w/ trypsin to w/o trypsin [26]: 27
- Fluorescence intensity w/ trypsin [27]: 45757
- Fluorescence intensity w/o trypsin [27]: 1595
- ratio w/ trypsin to w/o trypsin [27]: 29
- Fluorescence intensity w/ trypsin [28]: 44936
- Fluorescence intensity w/o trypsin [28]: 1665
- ratio w/ trypsin to w/o trypsin [28]: 27
- Fluorescence intensity w/ trypsin [29]: 44724
- Fluorescence intensity w/o trypsin [29]: 1567
- ratio w/ trypsin to w/o trypsin [29]: 29
- Fluorescence intensity w/ trypsin [30]: 44076
- Fluorescence intensity w/o trypsin [30]: 1599
- ratio w/ trypsin to w/o trypsin [30]: 28
- Fluorescence intensity w/ trypsin [31]: 43282
- Fluorescence intensity w/o trypsin [31]: 1601
- ratio w/ trypsin to w/o trypsin [31]: 27
- Fluorescence intensity w/ trypsin [32]: 42928
- Fluorescence intensity w/o trypsin [32]: 1527
- ratio w/ trypsin to w/o trypsin [32]: 28
Substance: TMR-Val-Pro-Arg-Gly-Lys-TMR (XPRGX; not fully specified; TMR dye at both ends) [T-VPRGK-T]
